{"source": "paper PMC6829862", "molecular_target": "mCherry–Gβ1γ9 dimer (UniProt P62873)", "assay": "FRET or BRET; FLIM-FRET in living transiently transfected HEK 293 cells at 37 °C; donor Citrine in Gα, acceptor mCherry on Gβ1 with the appropriate Gγ; efficiency E = 1 − τda/τd from the short lifetime component τ1 (donor alone 2.7 ± 0.1 ns), analysed only at the plasma membrane; GppNHp added to the culture did not change the signal"}
{"substance": "Citrine–Gαi3 (from UniProt P08754 1-354) (natural protein)", "values": [{"measurement": "FRET efficiency, lower than that of m3 with m4 by", "value": 5, "unit": "%"}]}
